Tested on: ParF (plasmid TP228 (segregation module))
Assay: fluorescence polarization
Settings: 5 mM ATP, 5 mM Mg acetate, 150 mM K glutamate; 150 mM potassium glutamate (50-350 mM in salt series), pH 7.5, 5 mM magnesium acetate, 5 mM ATP or ADP, 25 C, 1 nM DNA

Q: How did the Kd turn out when “AATTACTCAATTACTCAATT (double strand) [20-mer]” was run?
A: The Kd was 156 nM.

Source: PMC5389482
